Assay results as given in US20080233589A1 (WASHINGTON UNIVERSITY IN ST LOUIS, published 2008).
Numbering of substitutions follows the chain as printed. Names may count otherwise. One block for each binder: values may come before it.

Columns and labels:
[1] = target: T1, human FKBP-12 fused through a flexible Gly/Ser linker to a C-terminal luciferase fragment (human, UniProt P62942 2-108); experiment: split luciferase complementation in live HEK293T cells, rapamycin titrated for 8 h; all productive click beetle green or red fragment pairs (apparent Kd on the rapamycin concentration)
T1 construct: Stands for the set of CLuc-FKBP fusions (GC, RC, FC) expressed in HEK293T cells; also called CLuc-FKBP; not shown: C-terminal luciferase fragment; differs between the pairs pooled in the result (click beetle green or red residues 395-5); flexible Gly/Ser linker with multiple cloning site
T1 sequence (P62942 2-108): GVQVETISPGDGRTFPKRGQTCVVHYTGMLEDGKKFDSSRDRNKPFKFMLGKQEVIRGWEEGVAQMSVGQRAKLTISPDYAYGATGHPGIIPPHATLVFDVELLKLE

[2] = target: T1, human FKBP-12 fused through a flexible …; experiment: cell-based or functional assay
[3] = target: T1, human FKBP-12 fused through a flexible …; experiment: split luciferase complementation in HEK293T cells, fold induction by rapamycin (FIG. 7)

- Kd [1]: 0.25 nM
- Ki for FK506 inhibition of rapamycin-induced FRB and FKBP binding (luciferase complementation, 10 nM rapamycin) [2]: 1.57 nM
B1: FRB domain of human mTOR (residues 2024-2113) fused through a flexible Gly/Ser linker to an N-terminal luciferase fragment (other)
chain: HEMWHEGLEEASRLYFGERNVKGMFEVLEPLHAMMERGPQTLKETSFNQAYGRDLMEAQEWCRKYMKSGNVKDLTQAWDLYYHVFRRISK
notes: range 2024-2113; Stands for the set of FRB-NLuc fusions (GN, RN, FN) expressed in HEK293T cells; also called FRP; FRB-NLuc; not shown: flexible Gly/Ser linker with multiple cloning site; N-terminal luciferase fragment; differs between the pairs pooled in the result (click beetle green or red residues 2-413)

- binding result [3]: no binding
B2: FRB mutant S2035I fused to an N-terminal luciferase fragment (other)
chain: B1 chain with S12I
notes: range 2024-2113; also called ΔF; mutant S20351 FRB; not shown: flexible Gly/Ser linker with multiple cloning site; N-terminal luciferase fragment of the 'native split luciferase pairs'
